Source: patent publication US20240024501A1 (BONUM THERAPEUTICS, published 2024)
Like-named read-outs stand apart in the source and are kept apart here.

Columns and labels:
[1] = biological target: T1, LRRC15-hFc (Sino Biologicals, 15786-H02H) (UniProt Q8TF66 22-538); experiment: ELISA (Example 33): cell-free expressed scFv on LRRC15; x axis Log (concentration, nM)
T1 construct: also called LRRC15-Fc
T1 sequence (looked up): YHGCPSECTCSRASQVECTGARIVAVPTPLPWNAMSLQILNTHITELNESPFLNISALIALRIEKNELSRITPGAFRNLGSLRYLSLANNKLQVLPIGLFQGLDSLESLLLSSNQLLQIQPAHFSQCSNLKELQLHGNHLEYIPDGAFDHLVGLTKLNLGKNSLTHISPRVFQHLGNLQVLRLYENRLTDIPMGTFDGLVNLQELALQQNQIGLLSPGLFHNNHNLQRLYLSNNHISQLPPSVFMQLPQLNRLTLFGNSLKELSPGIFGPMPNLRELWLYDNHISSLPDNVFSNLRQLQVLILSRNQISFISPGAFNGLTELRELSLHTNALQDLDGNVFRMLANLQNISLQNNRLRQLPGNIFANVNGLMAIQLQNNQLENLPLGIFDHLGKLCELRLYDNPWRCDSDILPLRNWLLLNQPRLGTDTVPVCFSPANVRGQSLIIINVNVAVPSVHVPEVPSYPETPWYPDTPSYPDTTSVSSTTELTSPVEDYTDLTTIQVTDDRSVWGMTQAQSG

AF33 [2] = biological target: T2, AF33; experiment: ELISA: scFv captured at saturating level on anti-V5, titrated biotinylated AF33 (IL-15 fusion), streptavidin-HRP
T2 construct: also called IL-15; IL15

[3] = biological target: T3, PDL1-hFc-Avi (Acro Biosystems, PDL-H82F2) (UniProt Q9NZQ7 19-238, biotinylated); experiment: ELISA: scFv captured at saturating level on anti-V5, titrated PDL1-hFc-Avi, streptavidin-HRP
AF3099 = biological target: T4, AF3099; experiment: ELISA as in Example 9: dilution series of the IFN-scFv complex captured on anti-V5, probed with IFNAR2-Biotin with or without PD-L1, streptavidin-HRP
T4 construct: IFNα-linker-DBA scFv variant complex

AF33 [4] = biological target: T2, AF33; experiment: ELISA: scFv captured at saturating level on anti-V5, titrated biotinylated AF33 (IL-15 fusion), streptavidin-HRP; remark: listed apart in the source
[5] = biological target: T3, PDL1-hFc-Avi (Acro Biosystems, …); experiment: ELISA: scFv captured at saturating level on anti-V5, titrated PDL1-hFc-Avi, streptavidin-HRP; remark: listed apart in the source

B1: i47_A11 (scFv)
scFv: MSTSTQVQLVQSGAEVKKPGSSVKVSCKASGYTFTSYDINWVRQAPGQGLEWMGTINPSDGDTTYAQKFQGRVTITADESTSTAYMELSSLRSEDTAVYYCARVGGWGIYYYYGMDVWGQGTLVTVSSASGGGGSGGGGSGGGGSHASDIQMTQSPSSLSASVGDRVTITCRASQSINSWLAWYQQKPGKAPKLLIYAASSLQSGVPSRFSGSGSGTDFTLTISSLQPEDFATYYCQQTYTVPFSFGQGTKLEIKRAAAGSGSEQKLISEEDLGKPIPNPLLGLDST
[1]
  binding result: binds

B2: AF636 (scFv)
scFv: MSTSTEQKLISEEDLQVQLVQSGAEVKKPGASVKVSCKASGYSFTSYYLHWVRQAPGQGLEWMGRISPRSGGTKNAQNFQGRVTMTRDTSTSTVYMELSSLRSEDTAVYYCVRSLFPTIFGVEVAFDIWGQGTLVTVSSASGGGGSGGGGSGGGGSHASDIQMTQSPSSLSASVGDRVTITCRASQSISSWLAWYQQKPGKAPKLLIYYASSLQSGVPSRFSGSGSGTDFTLTISSLQPEDFATYYCQQGYQYPYTFGQGTKLEIKGKPIPNPLLGLDST
AF33 [2]
  binding result: binds
[3]
  binding result: binds

B3: IFNAR2-Biotin (receptor)
chain: ISYDSPDYTDESCTFKISLRNFRSILSWELKNHSIVPTHYTLLYTIMSKPEDLKVVKNCANTTRSFCDLTDEWRSTHEAYVTVLEGFSGNTTLFSCSHNFWLAIDMSFEPPEFEIVGFTNHINVMVKFPSIVEEELQFDLSLVIEEQSEGIVKKHKPEIKGNMSGNFTYIIDKLIPNTNYCVSVYLEHSDEQAVIKSPLKCTLLPPGQESESAESAK
modifications: biotinylated
notes: also called biotinylated interferon receptor (IFNAR2)
AF3099
  binding result: no binding (tested: 0.5 % IFN-scFv)

B4: AF635 (scFv)
scFv: MSTSTEQKLISEEDLQVQLVQSGAEVKKPGASVKVSCKASGYTFTGYYIHWVRQAPGQGLEWMGIINPSGGSTRYAQKFQGRVTMTRDTSTSTVYMELSSLRSEDTAVYYCARSLFPTIFGVEVAFDIWGQGTLVTVSSASGGGGSGGGGSGGGGSHASDIQMTQSPSSLSASVGDRVTITCRASQSIRTYLNWYQQKPGKAPKLLIYSASNLQSGVPSRFSGSGSGTDFTLTISSLQPEDFATYYCQQANSFPFTFGPGTKVDIKGKPIPNPLLGLDST
AF33 [4]
  binding result: binds
[5]
  binding result: binds
